Experimental data taken from patent US20250361320A1.

Biological target: human CEACAM5 on cells (MKN45, BxPC-3, Ls174T, HCT116-huCEACAM5) (human) (UniProt P06731)
Assay: flow cytometry on BxPC-3 cells (medium, 60,000 receptors/cell)

human CEACAM5 on cells (MKN45, BxPC-3, Ls174T, HCT116-huCEACAM5) (human), sequence (P06731 35-685 T210S limits assumed): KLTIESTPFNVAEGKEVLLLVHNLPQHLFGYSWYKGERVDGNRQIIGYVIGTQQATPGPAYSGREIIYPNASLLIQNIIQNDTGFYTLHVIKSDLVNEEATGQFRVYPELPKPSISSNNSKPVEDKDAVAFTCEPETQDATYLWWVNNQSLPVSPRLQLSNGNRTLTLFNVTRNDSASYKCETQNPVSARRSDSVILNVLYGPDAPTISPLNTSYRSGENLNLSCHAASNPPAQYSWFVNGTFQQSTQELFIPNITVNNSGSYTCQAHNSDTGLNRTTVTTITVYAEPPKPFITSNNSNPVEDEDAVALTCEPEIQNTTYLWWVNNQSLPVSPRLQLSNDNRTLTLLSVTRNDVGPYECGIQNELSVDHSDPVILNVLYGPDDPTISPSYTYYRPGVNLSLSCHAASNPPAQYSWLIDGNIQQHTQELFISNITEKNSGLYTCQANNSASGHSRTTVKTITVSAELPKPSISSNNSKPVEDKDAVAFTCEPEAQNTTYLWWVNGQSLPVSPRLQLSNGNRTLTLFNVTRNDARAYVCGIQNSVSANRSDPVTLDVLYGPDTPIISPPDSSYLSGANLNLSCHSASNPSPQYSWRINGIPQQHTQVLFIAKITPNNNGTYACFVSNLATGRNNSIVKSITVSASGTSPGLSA

EC50 (read off the curve): 8 nM
Substance: mAb Control 3 (antibody)
